Consider 6 molecules from patent US20090311685A1, “NMU-GHSR1b/NTSR1 oncogenic signaling pathway as a therapeutic target for lung cancer” (Oncotherapy Science, Inc, priority 2006, published 2009).

Where no end group is shown, it is not given here.

Data set [1] deals with T1, endogenous GHSR1b and NTSR1 on LC319 cells (Homo sapiens, UniProt P30989+Q92847).
T1 construct: endogenous in cells; host or cells: LC319
Kind of data set: Ligand-receptor binding assay with Cy5-labeled NMU-25. The note with it: 1 μM, dose-dependent. As to the method: (§1) To confirm the binding of NMU-25 to endogenous candidate receptors on the NSCLC cell, a receptor-ligand binding assay using LC319 and PC14 cells that express GHSR1b and NTSR1, but not NMU1R and NMU2R were performed. Specifically, trypsinized cells were seeded onto a 96-well (with black wall and clear bottom) microtiter plates 24 hours prior to the assay. The medium was removed and the cells were incubated with CyS-labeled NMU-25 peptide (1 μM) with or without the addition of 10-fold excess unlabeled NMU-25 peptide as the competitor. The plate was incubated in dark for 24 hours at 37° C. and then scanned on 8200 Cellular Detection System (Applied Biosystems) to quantify the amount of CyS fluorescence probe bound to the surface of each cell. (15) Immunocytochemistry for Internalized Receptors

Data set [2] has as its target T2, endogenous GHSR1b and NTSR1 on PC14 cells (Homo sapiens, UniProt P30989+Q92847).
T2 construct: endogenous in cells; host or cells: PC14
The data set is described as above. The note with it: 1 μM, dose-dependent. The method, then:
as §1

Data set [3] deals with LC319 cells. Kind of data set: Measurement of cAMP levels (cAMP EIA). The note with it: final concentrations of 3 to 100 μM. The class given is cell-based, human. The method, then:
Trypsinized LC319, REF-LC-AI, NCI-H358 and SK-MED-1 cells were seeded onto a 96-well microtiter plate (5.0×10^4 cells) and cultured in appropriate medium supplemented with 10% FCS for 24 hours, and then the medium was changed to serum free/1 mM IBMX (isobutylmethylxanthine) 20 min prior to the assay. Next, the cells were incubated with individual concentrations of peptides (NMU-25, GHRL, or NTS) for 20 min and cAMP levels of the cells were measured using cAMP EIA System (GE Healthcare Bio-sciences).
(In general: Cyclic AMP is a second messenger, typically raised through Gs and lowered through Gi signalling.)

For data set [4], the system named is NSCLC cells. The data set can be described thus: Competition of NMU-induced cAMP production. The data set is classed as cell-based.
The test system of data set [5] is LC319 cells. Kind of data set: Intracellular Ca^2+ mobilization assay (FLIPR). The data set is classed as cell-based, human. As to the method: Trypsinized LC319 cells were seeded onto poly-D-lysine coated 384-well black-wall, clear-bottom microtiter plate (1.0×10^4 cells/ml) 24 hours prior to the assay. The cells were loaded for 1 hour with 4 μM Fluo-3-AM fluorescent indicator dye in assay buffer (Hank's balanced salt solution, 20 mM HEPES, 2.5 mM probenecid), washed three times with assay buffer, and then incubated for 10 min at room temperature before detection on fluorometric imaging plate reader (FLIPR; Molecular Devices). Fluorescence data of Ca^2+ release were collected in real-time at 1 sec intervals for the first 65 sec and at 3 sec intervals for additional 300 sec after individual concentrations of peptide (NMU-25, […], or NTS) treatment. Maximum change in fluorescence over baseline was measured to determine the response of the cells to the individual peptide stimulations.

Data set [6] concerns LC319 cells. The data set can be described thus: Flow cytometry of cell cycle after siRNA transfection. The class given is cell-based, human. The method, then:
Cells were plated at a density of 5×10^5 cells/100-mm dish, transfected with siRNA-expression vectors, and cultured in the presence of appropriate concentrations of geneticin. Four days after transfection, the culture medium was replaced with geneticin-free medium. Cells were incubated for additional 24 hours, then trypsinized, collected in PBS, and fixed in 70% cold ethanol for 30 min. After treatment with 100 μg/ml RNase (Sigma-Aldrich Co.), the cells were stained with 50 μg/ml propidium iodide (Sigma-Aldrich Co.) in PBS. Flow cytometry was performed on Becton Dickinson FACSCalibur and analyzed by Cell Quest software (Becton Dickinson Biosciences). The percentage of nuclei in G0/G1, S, and G2/M phases on the cell cycle and the sub-GI population, were determined from at least 20,000 ungated cells.
In general terms: A flow cytometer gives signals particle by particle.

Data set [7] concerns the molecule itself. The data set can be described thus: anti-FLAG immunoprecipitation, SDS-PAGE, immunoblot with anti-FLAG, anti-NTSR1 or anti-GHSR antibody. The text has this:
Cell lysates from COS-7 cells that transiently express the FLAG-tagged GHSR1b, and those co-expressing both the FLAG-tagged GHSR1b and NTSR1 were immunoprecipitated with anti-FLAG antibody, subjected for SDS-PAGE, and then immunoblotted with anti-FLAG antibody (A), with anti-NTSR1 antibody (B), or with anti-GHSR antibody (C). The arrows indicate the monomer, heterodimer, and homodimers of the receptors. The molecular weight (kDa) markers are indicated on the left side of individual panels. Non-specific immunoreactive protein band detected by anti-FLAG antibody is indicated with asterisks.
Cultured cells were washed twice with ice-cold PBS(−) and incubated with 5 mM Dithiobis [succinimidyl propionate] (DSP) (PIERCE) for 60 min in PBS(−) on ice. The reaction was quenched by incubation with Stop solution (1 M Tris, pH 7.5) at a final concentration of 50 mM Tris for 15 min on ice. […] The solutions were subjected to SDS-PAGE, and receptor proteins were detected by Western blot analysis using mouse monoclonal anti-FLAG M2 antibody, goat polyclonal anti-NTSR1 antibody, or rabbit polyclonal anti-GHSR antibody as the primary antibody, and rec-Protein G-Peroxidase Conjugate (ZYMED Laboratories, Inc.) to detect the antigen-antibody complexes.
(A western blot detects proteins with antibodies after separation by electrophoresis.)

For data set [8], the target named is T3, FLAG-tagged NTSR1 (Homo sapiens (Human), UniProt P30989 1-418).
T3 construct: Transiently expressed in COS-7 cells; COS-7 cells also express GHSR1b and NTSR1 endogenously, so in the cells transfected only with FLAG-GHSR1b the NTSR1 partner is the endogenous COS-7 protein; also called NTSR1 (p3XFLAG-CMV10 construct); not shown: FLAG tag from the p3XFLAG-CMV10 vector
T3 sequence (P30989 whole entry A200T): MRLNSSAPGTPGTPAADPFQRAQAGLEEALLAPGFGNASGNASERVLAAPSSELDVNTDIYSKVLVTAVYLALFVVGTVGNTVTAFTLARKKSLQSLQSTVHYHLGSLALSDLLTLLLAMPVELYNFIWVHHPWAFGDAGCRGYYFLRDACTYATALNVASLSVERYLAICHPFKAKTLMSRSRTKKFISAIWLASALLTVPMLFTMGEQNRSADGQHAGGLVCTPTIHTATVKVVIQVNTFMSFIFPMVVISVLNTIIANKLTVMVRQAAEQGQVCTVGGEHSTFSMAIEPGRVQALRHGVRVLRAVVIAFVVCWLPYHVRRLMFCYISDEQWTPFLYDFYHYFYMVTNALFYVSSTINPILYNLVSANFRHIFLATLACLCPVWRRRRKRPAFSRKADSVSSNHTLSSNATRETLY
The data set can be described thus: DSP cross-linking, immunoprecipitation and Western blot of transfected COS-7 cells. As to the method: Cultured cells were washed twice with ice-cold PBS(−) and incubated with 5 mM Dithiobis [succinimidyl propionate] (DSP) (PIERCE) for 60 min in PBS(−) on ice. The reaction was quenched by incubation with Stop solution (1 M Tris, pH 7.5) at a final concentration of 50 mM Tris for 15 min on ice. The cells were then washed twice with ice-cold PBS(−) and lysed in ice-cold Tx/G buffer (300 mM NaCl, 1% Triton X-100, 10% glycerol, 1.5 MM MgCl₂, 1 mM CaCl₂, and 10 mM iodoacetamide in 50 mM Tris-Cl, pH 7.4) containing protease inhibitor (Protease Inhibitor Cocktail Set III; Calbiochem) for 60 min on ice. […] The solutions were subjected to SDS-PAGE, and receptor proteins were detected by Western blot analysis using mouse monoclonal anti-FLAG M2 antibody, goat polyclonal anti-NTSR1 antibody, or rabbit polyclonal anti-GHSR antibody as the primary antibody, and rec-Protein G-Peroxidase Conjugate (ZYMED Laboratories, Inc.) to detect the antigen-antibody complexes.
To examine direct association between GHSR1b and NTSR1, either or both of FLAG-tagged GHSR1b and FLAG-tagged NTSR1 were transiently expressed in COS-7 cells (FIG. 2A depicts the data of transient GHSR1b expression, and FIG. 2B the expression of both receptors). […] No such species were detected when empty vector (mock) was transfected to COS-7 cells as the negative control.

In data set [9] the test system is COS-7 cells. The data set can be described thus: Flow-cytometric binding of rhodamine-labeled NMU-25 to cells. The note with it: 0.5-10 μM, 2 hours at room temperature. The method, then:
(11) Cell-Growth and Colony-Formation Assays COS-7 transfectants that stably express NMU were seeded onto 6-well plates (5×10^4 cells/well), and maintained in medium containing 10% FCS and 0.4 mg/ml geneticin for 24, 48, 72, 96, 120, and 144 hours. At each time point, cell proliferation was evaluated by MTT assay using Cell Counting Kit (WAKO). Colonies were counted at 144 hours. All experiments were done in triplicate. Interaction of NMU-25 with COS-7 cells were examined by flow-cytometric analysis. Specifically, subconfluent cells were harvested in Cell Dissociation Solution (Sigma-Aldrich Co.) and suspended in DMEM. Then, 1×10^6 cells/microtube were washed with assay buffer (PBS(−) with 10 mM MgCl2, 2 mM EDTA, and 0.1% BSA), and the cells were incubated with 0.5-10 μM rhodamine-labeled NMU-25 peptide (NMU-25-rhodamine; Phoenix Pharmaceuticals, Inc.) in assay buffer for 2 hours at room temperature. Subsequently, the cells were washed twice with assay buffer.
To detect the population of cells binding to rhodamine-labeled NMU-25, flow cytometry was performed using Becton Dickinson FACSCalibur and analyzed by Cell Quest software. The growth effect of NMU on NSCLC cells was also examined using LC319 cells transiently transfected with plasmids expressing NMU or mock plasmids. The cells were cultured in RPMI containing 10% FCS and geneticin (1 mg/ml) for 18 days, and colonies were counted.

In data set [10] the test system is LC319 cells. The data set can be described thus: Internalization study with fluorescence ligand of NMU (confocal microscopy). The data set is classed as cell-based, human. The method, then:
LC319 cells were grown in DMEM containing 10% FCS. The cells were washed in PBS(−), and preincubated for 10 min at 37° C. in DMEM containing 0.1% BSA. The cells were then incubated for various periods of time with Alexa Fluor 594-labeled NMU-25 peptide in DMEM containing 0.1% BSA. At the end of incubation, the cells were washed three times with ice-cold PBS(−), fixed with 4% paraformaldehyde solution, initially for 5 min on ice and then for 15 min at room temperature. The cells were washed, and treated with DAPI. Images were viewed and assessed using confocal microscopy (TCS SP2 AOBS; Leica Microsystems). Optical sections with intervals of 0.25 μm were taken with 63×/1.4 objective.

T2 sequence (P30989 whole entry, one chain of several): as the sequence (P30989 whole entry A200T) above, with T200A counted along it
T1 sequence (P30989 whole entry, one chain of several): as the sequence (P30989 whole entry A200T) above, with T200A counted along it

With “Cy5-labeled NMU-25: Cy5 fluorescence-labeled NMU-25 peptide for the receptor-ligand binding assay (FRVDEEFQSPFASQSRGYFLFRPRN; ends and bridges not checked; also: Cy5 fluorescence label, site not given here)”, the “binding to the cell surface” value in data set [1] and in [2] was “detected to bind to the surface” each time.

As for nerotensin [NTS], the cAMP production result in data set [3] is “did not enhance”. In [4], the “NMU-induced cAMP production” value is given as “competitively inhibited”. In addition, in [5], the “intracellular Ca^2+ flux / mobilization” value is listed as “caused the mobilization response”.

“si-EGFP: control siRNA against enhanced green fluorescent protein gene, 5′-GAAGCAGCACGACTTCTTC-3′ (SEQ ID NO: 46) (chemistry not given here)” displayed a sub-GI fraction in data set [6] of 11.2%.

B1: FLAG-tagged GHSR1b (receptor)
chain: MWNATPSEEPGFNLTLADLDWDASPGNDSLGDELLQLFPAPLLAGVTATCVALFVVGIAGNLLTMLVVSRFRELRTTTNLYLSSMAFSDLLIFLCMPLDLVRLWQYRPWNFGDLLCKLFQFVSESCTYATVLTITALSVERYFAICFPLRAKVVVTKGRVKLVIFVIWAVAFCSAGPIFVLVGVEHENGTDPWDTNECRPTEFAVRSGLLTVMVWVSSIFFFLPVFCLTVLYSLIGRKLWRRRRGDAVVGASLRDQNHKQTVKMLGGSQRALRLSLAGPILSLCLLPSL
notes: Transiently expressed in COS-7 cells; Cross-linked with DSP, immunoprecipitated with anti-FLAG beads and blotted; also called GHSR1b (p3XFLAG-CMV10 construct); not shown: FLAG tag from the p3XFLAG-CMV10 vector
B1: the binding result in [7] and in data set [8] was “binds” in each case.

B2: rhodamine-labeled NMU-25 peptide: rhodamine-labeled NMU-25 peptide (Phoenix Pharmaceuticals, Inc.) (conjugate)
peptide: MLRTESCRPRSPAGQVAAASPLLLLLLLLAWCAGACRGAPILPQGLQPEQQLQLWNEIDDTCSSFLSIDSQPQASNALEELCFMIMGMLPKPQEQDEKDNTKRFLFHYSKTQKLGKSNVVSSVVHPLLQLVPHLHERRMKRFRVDEEFQSPFASQSRGYFLFRPRNGRRSAGFI
For B2, the “binding to the cell surface (flow cytometry)” value in [9] is “bound to the surface of COS-7 cells in a dose-dependent manner”.

B3: NMU-25-Alexa594: Alexa Fluor 594-labeled NMU-25 peptide (conjugate)
peptide: B2 peptide
As for B3, the “localization of internalized ligand” value in data set [10] (15-min incubation) is on record as “concentrated in dots or irregular clusters at more peripheral part of the cytoplasm”; in [10] (45-min incubation), “concentrated within small spots clustered in the center of the cells, close to the nucleus”. For the same molecule, the “internalization of labeled ligand (xz- and yz-projections)” value in data set [10] (confocal microscopy) is listed as “incorporated within the cells”.
